Assay results as given in patent publication US20130224829A1, “NOVEL LIPOXYGENASE DERIVED FROM LEMNA PAUCICOSTATA” (priority 2010, published 2013).

B1: 441LpLOX1: Position 9 product specific lipoxygenase 1 obtained from Lemna paucicostata 441 strain (SEQ ID NO: 4) (protein, listed as Lemna paucicostata)
chain: MDAFIHKVTDVFTHKEENKVAKISGTVVIVKSNVVGFNDFVDSFLDGLHELVGSGITFQLISATVGDPKNGNKGKLGKPAQLERWITTGTFLAAGDSGFKLTFEWDEQLGFPGAVIVKNNHHGEFFLKSFTLDGVPGKKTRIHFDCNSWVYPYSTYNYDRVFFANDTFLPGNMPEPLKAYRAAELANLRGDGVAPRELKEGDRIYAYDVYNDLGDPDSGEELVRPILGGSKEYPYPRRARTGRKMTKTDPKSETRLPLLFSLNVYVPRDERFGHLKMSDFLGYSLKALAQGLVPVLNEAADLTPFEFDTFQDVLNLYEGGIDLPDSPALENVRKQIPFALIKELFRSDGENLFRLPTPAVIKADKFAWRTDEEFGREMLAGVNPVCIRLLTKFPPVSSLDPNTYGDHNSTMTADQLEKNMNGLSVEEALNKKKLFILDHHDSLMPYLERINTFNKIYASRTVLLLQDDGTLKPLAIELSLPIKGQKGAVSKVYTPAEHGVEAAVWQLAKAFAAVNDSGVHQLISHWLNTHATIEPFAIALNRQLSVVHPIYKLLHPHFRDTMNINAFARQILINAGGILEMTVFPGKYALEMSSVVYKGWKLIDHALPVDLLNRGVAENDPSAPGKLRLLIEDYPYAVDGLAVWSAIEIWVKEYCAIYYPSDKILQDDTELQAWWKEVREVGHGDKKDETWWPTMKTVAELTQTCCTIIWVASALHAAVNFGQYPYAGYLPNRPTVSRRFMPEPGTPEYEELKTDPDRAFLKTITSQLQTTIGVSLIEILSRHSSDEVYLGQRISAEWTTDEKALAAFKAFGERLITIENQIIEMNHEPKLKNRNGPVKLPYTLLYPNTSDYTRVGGLTGRGIPNSVSI
B2: SHLpLOX: Position 9 product specific lipoxygenase obtained from Lemna paucicostata SH strain (SEQ ID NO: 2), expressed in Escherichia coli (protein, listed as Lemna paucicostata)
chain: MAGFLQKVTDNLLHKAAKISGTVVLVKSNVVGFNDFADSFLDGLHELLGSGITFQLVSATVGDPKNGNKGKLGKPALLEKWITTGTFLAAGDSGFKVNFEWDEQLGVPGAVIVKNNHHGEFFLKSLTLDGAPGPRSRIHFDCNSWVYPYSTYNYDRVFFANDTYLPGEMPEPLKAYRAAELVNLRGDGVTRELKEGDRIYAYDLYNDLGDPDSGKELARPILGGSEEYPYPRRARTGRKLTKTDPKSEQRLPLVFSLNVYVPRDERFGHLKMSDFLAYSLKALAQGLVPALDAATDITPFEFDTFQDVLNLYEGGINLPTTPALENFKKQIPFPLVKELFRSDGENLFRLPTPSVIKADKFAWRTDEEFGREMLAGVNPVCIRLLKKFPPVSSLDPSIYRNQNSTMIADQLEKNMNGLSVEEALKQKKLFILDHHDSLMPYLERINTFNKIYASRTVLLLQDDGTLKPLAIELSLPVKGEKGAVSKVYTPAEHGVEGAVWQLAKAYVAVNDSGVHQLISHWLNTHATIEPFSIALNRQLSVVHPIYKLLHPHFRDTMNINAFARQILINAGGILEMTVFPGKYAMEMSSVVYKGWKLTDQALPVDLLNRGVAEKDPSSGELRLLIEDYPYAVDGLDVWNAIEEWVKEYCAIYYPSDKTLQDDTEVQAWWKEVREVGHGDKKDETWWPAMETVAELTQTCSTIIWVASALHAAVNFAQYPYAGYLPNRPTISRRFMPEPGTPEYEELETDPDRAFLKTITSQLQTLIGVSLIEILSRHSSDEIYLGQRVSAEWTSDAKALAAFKAFGEKLITIENKIIEMNVDSSLKNRNGPVKVPYTFLYPNTTDYTRVGGLTGRGIPNSISI
B3: 441LpLOX2: Position 9 product specific lipoxygenase 2 obtained from Lemna paucicostata 441 strain (SEQ ID NO: 6) (protein, listed as Lemna paucicostata)
chain: MADFLQKVTNNLLHKAAKISGTVVLVKSNVIGFNDFGDSFLDGLHELLGSGITFQLVSATVGDPNNGNKGKLGKPALLEKWITTGTFLVAGDSGFKVNFEWDEQLGIPGAVIVKNNHHGEFFLKSFTLDGVPGPRSRIHFDCNSWVYPYSTYNYDRVFFANDTYLPGETPEPLKAYRAAELVNLRGDGVTRELKEGDRIYAYDYYNDLGDPDSGKELARPILGGSKEYPYPRRARTGRKLTKTDPKSEQRLPLVFSLNVYVPRDERFGHLKMSDFLAYSLKALAQGLVPALDAAADITPFEFDTFQDVLNLYEGGINLPTTPASENFKKQIPFPLVKELFRSDGENVFRLPTPSVIKADKFAWRTDEEFGREMLAGVNPVCIRLLTKFPPVSSLDPSIYGNQNSTMIADQLEKNMNGLSVEEALKQKKLFILDHHDSLMPYLERINTFNKIYASRTVLLLRDDGTLKPLAIELSLPIKGEKGAVSKVYTPAEHGVEGAVWQLAKAYVAVNDSGVHQLISHWLNTHATIEPFSIALNRQLSVVHPIYKLLHPHFRDTMNINAFARQILINAGGILEMTVFPGKYAMEMSSVVYKGWKLTDQALPVDLLNRGVAEKDPSSGELRLLIEDYPYAVDGLDVWNAIEEWVKEYCAIYYPSDKTLLDDTELQAWWKEVREVGHGDKKDETWWPAMETVAELTQTCCTIIWVASALHAAVNFAQYPYAGYLPNRPTISRRFMPEPGTPEYEELETDPDRAFLKTITSQLQTLIGVSLIEILSRHSSDEIYLGQRVSAEWTSDAKALAAFKAFGEKLITIENKIIQMNVDSSLKNRNGPVKVPYTFLYPNTTDYTRVGGLTGRGIPNSISI

Test: Lipoxygenase activity of enzyme solutions on α-linolenic acid, reverse-phase HPLC of linolenic acid hydroperoxide
Assay type: biochemical
Conditions: for activity of position 9-product specific lypoxygenase compared with r9-LOX1 (amount of lynolenic acid-9-hydroperoxide): HPLC comparison, FIG. 6; for position 9 product specific lypoxygenase activity (peak of linolenic acid-9-hydroxyperoxide, 21.1 min): α-linolenic acid substrate, pH7.0, 30 minutes reaction, E. coli-expressed enzyme solution
Procedure: The activity of lypoxygenase in the enzyme solutions of SHLpLOX, 441LpLOX1, 441LpLOX2 and r9-LpLOX1 which was used as a control, was determined. 25 μl of 5 mM α-lynolenic acid solution (including 0.05% Tween80), 10 μl of 0.2M phosphate Na Buffer (pH7.0), 5 μl of distilled water were added to 1.5 ml of tube, and then 10 μl of the enzyme solution was added to the tube, and allowed to react for 30 minutes. After the reaction was over, reactant was subjected to HPLC (reverse phase; Column: Capsule pack C-18 UG120 (4.6×250 mm, Shiseido), Column temperature: 40° C., Mobile phase: 50% acetnitril (0.02%TFA), Flow rate 1 ml/min, Detection: 210 nm) so as to detect the site specificity of produced lynolenic acid hydroperoxide and the production amount.
The amount of lynolenic acid-9-hydroperoxide form was compared based on the results of HPLC.

Molecule	activity of position 9-product specific lypoxygenase compared with r9-LOX1 (amount of lynolenic acid-9-hydroperoxide)	position 9 product specific lypoxygenase activity (peak of linolenic acid-9-hydroxyperoxide, 21.1 min)
B1	far higher activity	have position 9 product specific lypoxygenase activity
B2	far higher activity	have position 9 product specific lypoxygenase activity
B3	–	have position 9 product specific lypoxygenase activity
